From the nanobody polyreactivity screen of Harvey et al. (2022)

Experiment: yeast display, Sf9 membrane polyspecificity reagent, FACS + sequencing; frameworks hold sequencing errors
Outline: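 In a synthetic yeast display library (Saccharomyces cerevisiae BJ5465), nanobody expression was induced with galactose for 36–48 hours. FACS gates were set low and high (top ~1%) using anti-HA fluorescence for expression and streptavidin fluorescence for binding of the Sf9 membrane reagent. Each polyreactivity label is drawn from the gate of origin.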

Q: With “QVQLVESGGGLFKAGGSLRLSCAASGSTLVTYAKGWYRQAPGKERELVAAISWRGGSTYYADSVKGRYTISRDNAKNTVYLQMNSLKPEDTEVYYCNKMRAYKESETYYFWGQGTQVTVSS” as the sequence, how does the “polyreactivity (PSR sort gate)” value read?
A: Its value is “low polyreactivity”.

Q: Which “polyreactivity (PSR sort gate)” value does the source give for “QVQLVESGGGLFLAGGSLRLSCAAAGSTFVTNDMGWYRQAPGKERELVAAISVGGRTSYADSVKGRFTISRDNAKNTVYLQMNSLKPEDTAVYYCAAQYRYTYWGQGTQVTVSS” here?
A: Its value is “low polyreactivity”.

Q: With “QVQLVESGGGLFLAGGSLRLSCAASGSTFWYNMGWYRQAPGKDRELVAAISNSSGRTYYADSVKGRCTISRDNPKNTDYLQMKSLKPEDTAVYYSAADPKLGSRTGFYYWGQGTQVTVSS” as the sequence, how does the “polyreactivity (PSR sort gate)” value read?
A: The value was “high polyreactivity”.

Q: For “QVQLVESGGGLFQAGGILILSFAASGNTLNYYTMGWYRQAPGKERELVAAISSSGGSTYYAESVKGSFTISRDYAKNTVYLHMNRLKPEDNAVYFCNDSVINEMNNWGQGTQVTVSS”, which “polyreactivity (PSR sort gate)” value is on record?
A: Its value is “low polyreactivity”.

Q: With “QVQLVESGGGLFQAGGILRLTCAASGLTIYDYAMRWSRQAPAKERELVAANTRSAGSTYYADSVKGRFTISRDYAKYTVYLLMNSLKPEDTAVYYCAARGKIRYQGYYGSDQYYYWGQGTQVSVSS” as the sequence, how does the “polyreactivity (PSR sort gate)” value read?
A: Its value is “high polyreactivity”.

Q: Which “polyreactivity (PSR sort gate)” value does the source give for “QVQLVESGGGLFQAGGRLRLSCAASGSTFGYNAMGWYREAPGKERELVAAISYSSGSTYYADSVKGRFTISRDNAKNTVYLQMNSLKPEDTAVYYCAVVSRASRRGGRYDYWGQGTQVTVSS” here?
A: The value was “high polyreactivity”.

Q: Which “polyreactivity (PSR sort gate)” value does the source give for “QVQLVESGGGLFQAGGSIRLSCAASGRISEGYAMGWYIQAPGKERELVAAITSSTASTYYADSVKGRFTISRDNAKNTVYLQMNSLKPEDTAVYYCNADYGLYPEDYDYWGQGTQVTVSS” here?
A: Its value is “low polyreactivity”.

Q: With “QVQLVESGGGLFQAGGSLRISCAASGSTFYHNFMGWYRQAPGKERELVARITSTDSTYYEDSVKGRFTISGDNAKNTVYLQMNSLKPEYTAVSYCAASWWSPYDYWGQATQVTVSS” as the sequence, how does the “polyreactivity (PSR sort gate)” value read?
A: Its value is “low polyreactivity”.

Q: Which “polyreactivity (PSR sort gate)” value does the source give for “QVQLVESGGGLFQAGGSLRISCAPSGFISHFYAMAWYRHAPGKEREFVARISYSVGSTYYADSVKGRFTISRDNAKNTVYVQMNSLKPEDTAVYDCNAGPQYDVHEYYYWGQGTQVTGSS” here?
A: The value was “low polyreactivity”.

Q: With “QVQLVESGGGLFQAGGSLRLRWAASGNTFRYYVMGWYRQAPGKERELVADINWSGGRTYYADSVKWGFTISRDNAKNTVYFQMNSLKPEDTAVFYCNAARKLYRYSYDYWGQGTQVTLSS” as the sequence, how does the “polyreactivity (PSR sort gate)” value read?
A: Its value is “high polyreactivity”.

Q: With “QVQLVESGGGLFQAGGSLRLSCAASGFIFFPYTMGWYRQAPGKERELVAAITNGGSTSYADSVKGRFTISRDNAKNTVYLQMNSLKPEDTAVYYCAADLGRNLLHTYYYWGQGTQVTVSS” as the sequence, how does the “polyreactivity (PSR sort gate)” value read?
A: Its value is “low polyreactivity”.

Q: With “QVQLVESGGGLFQAGGSLRLSCAASGFIFQYYDMGWYRQAPGKERELVAAINYSGGNTYYADSVKGRFTISRDNAKNTVYLQLNILKPEDSEVFYCAAAPSVSCTRLYEYWGQGTQVTVSS” as the sequence, how does the “polyreactivity (PSR sort gate)” value read?
A: Its value is “high polyreactivity”.

Q: With “QVQLVESGGGLFQAGGSLRLSCAASGFTFSFNTMGWYRQAPVKERELVAAIRNNGGGTNYADSVKGRFTISRDKAMNTVYLQMNSLKPEDTAVYYCAADRIYAWFGRLYYWGQGTQVTGSS” as the sequence, how does the “polyreactivity (PSR sort gate)” value read?
A: Its value is “low polyreactivity”.

Q: With “QVQLVESGGGLFQAGGSLRLSCAASGFTIFLNAMGWYRQAPGKERELVAAITVSGSSTYYADSVKGRFTISRDNAKNTVYLQMNSLKPEDTAVYYCNAEIYSPYYTYDYWGQGTQVTVSS” as the sequence, how does the “polyreactivity (PSR sort gate)” value read?
A: The value was “low polyreactivity”.

Q: With “QVQLVESGGGLFQAGGSLRLSCAASGIIFPYYVMGWSRQAPGTEREFVATISWSGGRTYYADSVKGRFTISRDNAKNTVYFQMNSLKPEDTAVYYCAAAKHYYNGYGYWGQGTQVTVSS” as the sequence, how does the “polyreactivity (PSR sort gate)” value read?
A: The value was “high polyreactivity”.

Q: With “QVQLVESGGGLFQAGGSLRLSCAASGITLYLYVMGWYRQAPGIEREFVAAIRWSGGSTYYADSVKGRFTISRDNAKYTVYLLMNSLKPEDTAVYYCAVTYVGHVYEYYYWGQGTQVTVSS” as the sequence, how does the “polyreactivity (PSR sort gate)” value read?
A: The value was “low polyreactivity”.

Q: With “QVQLVESGGGLFQAGGSLRLSCAASGLIFSSNAMGWYRQAPGKERELVATISWSGGSTYYADSVKGRFTISRDKAKNNVYLQMNSQKPEDTAVYYCAAAQRWSFLHYYYYWGQGTQVTVSS” as the sequence, how does the “polyreactivity (PSR sort gate)” value read?
A: The value was “high polyreactivity”.

Q: For “QVQLVESGGGLFQAGGSLRLSCAASGLTFYIYAMGWYRQAPGKEREFVAAIRRSGGRTYYADSVKGRFTISRDNAKNTVYLQMNSLKPEDTAVYYCNRYTQYRDRSDNHWGQGTQVTVSS”, which “polyreactivity (PSR sort gate)” value is on record?
A: The value was “high polyreactivity”.

Q: With “QVQLVESGGGLFQAGGSLRLSCAASGNTFPYYAMGWYRQAPVKERELVAAISRSGGTTYYADSVKGRFTISRDNAKNTVYLQMTSLKPEDTAVYYCAALYGSRSTYHMDDYWGQGSQVTVSS” as the sequence, how does the “polyreactivity (PSR sort gate)” value read?
A: The value was “high polyreactivity”.

Q: For “QVQLVESGGGLFQAGGSLRLSCAASGRIFHWYAMGWYRQAPGKERELHAAITDGDSTYYADSVKGRFTISRDNAKNTVYLQMNSLKPEDTAVYYCAADVVYSPYVFGGTRYYKYDYWGQVTQVTVSS”, which “polyreactivity (PSR sort gate)” value is on record?
A: Its value is “low polyreactivity”.

Q: For “QVQLVESGGGLFQAGGSLRLSCAASGRIFSDYAMGWYRQAPGKERELVATITSGDSTNYADSVKGRFTISRDNAKNTVYLQMNSLKPEDTAVYYCNADRFADYDYWGQGTQVTVSS”, which “polyreactivity (PSR sort gate)” value is on record?
A: The value was “low polyreactivity”.

Q: For “QVQLVESGGGLFQAGGSLRLSCAASGRTFDDYAMGWYRQAPGKERELVAGITDNGGGTNYADSVKGRFTISRDNAKNTVYLQMNSLKQEDTAVYYCAAGETFEMYYWGQVTQVTVSS”, which “polyreactivity (PSR sort gate)” value is on record?
A: Its value is “low polyreactivity”.

Q: For “QVQLVESGGGLFQAGGSLRLSCAASGRTFGIYAMRWYRQAPGKERELVATISWRGGSTYYADSVKGRFTISRDNAKNTVDLQMNSLKPEDTAVYYCAAVLTALSPDFEYEYWGQGTQVTVSS”, which “polyreactivity (PSR sort gate)” value is on record?
A: The value was “low polyreactivity”.

Q: With “QVQLVESGGGLFQAGGSLRLSCAASGRTFHANAMGWYRQAPGKERELVARINWSGTSTYYADSVKGRFTISRDNAKNTVYLQMNSLKPEDTAVYYCAAGWIRQYSSLYDYWGQGTQVTVSS” as the sequence, how does the “polyreactivity (PSR sort gate)” value read?
A: The value was “high polyreactivity”.

Q: For “QVQLVESGGGLFQAGGSLRLSCAASGRTFLYYTMGWYRQAPGKERELVAAITSGTSTNYADSVKGRFTISRDNAKNTVYLQMNSLKPEDTAVYYCNKRAARSLNGYPLYGYYYWGQGTQVTVSS”, which “polyreactivity (PSR sort gate)” value is on record?
A: Its value is “low polyreactivity”.

Q: For “QVQLVESGGGLFQAGGSLRLSCAASGRTFRYYVMGWYRQAPGKERELVAAISKSGASTYYADSVKGRFTISRDNAKYTVYSQMNSLKPEDTAVYYCAAGGVYSIYRTSRVGYDYWGQGTQVTVSS”, which “polyreactivity (PSR sort gate)” value is on record?
A: The value was “high polyreactivity”.

Q: Which “polyreactivity (PSR sort gate)” value does the source give for “QVQLVESGGGLFQAGGSLRLSCAASGRTFSRYVMGWYRQAPGKERELVAAISRTGGRKYYADSVKGRFTITRDNAKNTVYLQMNSLKPEDTAVYYCNAGTVLISTYDYWGQGTQVTVSS” here?
A: The value was “high polyreactivity”.

Q: For “QVQLVESGGGLFQAGGSLRLSCAASGRTIYLNAMGWYRQAPLKERELVAAITSSGGRTYYADSVKGRFTISRDNAKNSVYLQMNSLKPEDTAVYYCAAVVSSKPSFYWGQGSQVTVSS”, which “polyreactivity (PSR sort gate)” value is on record?
A: The value was “low polyreactivity”.

Q: Which “polyreactivity (PSR sort gate)” value does the source give for “QVQLVESGGGLFQAGGSLRLSCAASGSIFDSYAMGWYRQAPGKDREVVAAISSDCGSTYYADSVKGRFTISRDNAKNTVYLQMNSLKPEDTAVYFCAVEDYSSPYDFDSWGQGTQVTVSS” here?
A: The value was “low polyreactivity”.

Q: Which “polyreactivity (PSR sort gate)” value does the source give for “QVQLVESGGGLFQAGGSLRLSCAASGSIFRYYVMGWYRQAPGKEMELVAAISTGDRTNYADSVKGRFTISRDNAKNTVYLQMNSLKPEDTAVYYCNADYVVGWARLEFNYWGQGTQVTVSS” here?
A: Its value is “low polyreactivity”.

Q: With “QVQLVESGGGLFQAGGSLRLSCAASGSTFVANAMGWYRQAPGKERELVAAISSSGGSTYYADSVKGRFTISRDIAKNTVYLQMNSLKHDDTAVYYCNARSISRKKGYPPQRRDGYWGQGTQVTVSS” as the sequence, how does the “polyreactivity (PSR sort gate)” value read?
A: Its value is “high polyreactivity”.

Q: With “QVQLVESGGGLFQAGGSLRLSCAASGSTFYRYTMGWYRQAPGKERELVASISRSGGSTYYADSVKGRFTISRDNAKNTVYLQMNSLKPEDTAVYYCAAKAQGKYYQYNYWGQGTQVTVSS” as the sequence, how does the “polyreactivity (PSR sort gate)” value read?
A: Its value is “high polyreactivity”.

Q: For “QVQLVESGGGLFQAGGSLRLSCAASGSTFYTNAMGWYRQAPGKERELVAAISWSGGSTYYADSVKGRFTIARDNAKNPVYLQLNSLKPEDTAVYYCDVSGTHFRYDYWGQGTQVTVSS”, which “polyreactivity (PSR sort gate)” value is on record?
A: Its value is “high polyreactivity”.

Q: For “QVQLVESGGGLFQAGGSLRLSCAASGTTFAYYTMGWYIQAPGTERELVAAITSGGRTSYADSVKGRFTISRDNAKNTVYLLMNSLKPEDTAFFSCAKCRKPGYYYWGQGNQVTVSS”, which “polyreactivity (PSR sort gate)” value is on record?
A: The value was “high polyreactivity”.

Q: For “QVQLVESGGGLFQAGGSLRLSCAASGYIFRSYAMGGYRQAPGKERELVAAITRSGGSTYYADSVKGRFTISRDNAKNTVYFQMNSLKPEDTAVYYCAVLPRGSNGMDYCGQGTQVTVSS”, which “polyreactivity (PSR sort gate)” value is on record?
A: Its value is “low polyreactivity”.

Q: For “QVQLVESGGGLFQAGGSLRLSCAATGRIFYSNAMGWYRQAPGKERELVAAINSRGGRTYYADSLKGRFTISRDNAKNTVYLQMNSLKPEDTAVYYCAAPTGPKGYYSDRGDSWGQGTQVTVSS”, which “polyreactivity (PSR sort gate)” value is on record?
A: Its value is “high polyreactivity”.

Q: Which “polyreactivity (PSR sort gate)” value does the source give for “QVQLVESGGGLFQAGGSLRLSCAATGRTFDPYAMGWYRQAPGKERELVAVISISDGSTYYADSVKGRFTISRDNAKNTVYLQMHSLKPEDTAVYYCAAYVFYDYWTLEYWGQGTQVTVSS” here?
A: Its value is “high polyreactivity”.

Q: For “QVQLVESGGGLFQAGGSLRLSCAATVSNYRYYAMGWYRQAPGKETELVAYITSSGGSTYYADSVKGLFTISRDYAKNTVYLQMNSLKPEDTAVYYCAALSWLYVYPFTEYDYWGQGTQVTVSS”, which “polyreactivity (PSR sort gate)” value is on record?
A: The value was “low polyreactivity”.

Q: With “QVQLVESGGGLFQAGGSLRLSCDPSGSIFEYYAMGWYRQAPGKERELVAAITQSGGSTYYADSVKGRFHKFTRQCEEYRLFPDEQPETGRYRGISLAADAECYQNDYALDYWGQGTQVTVSS” as the sequence, how does the “polyreactivity (PSR sort gate)” value read?
A: The value was “low polyreactivity”.

Q: Which “polyreactivity (PSR sort gate)” value does the source give for “QVQLVESGGGLFQAGGSLRLTCAASGFTFSYNAMGWYRQAPGKERELVAAISSSGGSTYYADSVKVRFTISRENAKNTVYLPMNSLKPVDTAVYYCAVPYLTLYGRTYDYWGQGTLVTVSS” here?
A: The value was “high polyreactivity”.

Q: Which “polyreactivity (PSR sort gate)” value does the source give for “QVQLVESGGGLFQAGGTLRLSCDASGLIFLSYGMAWYRQAPGKERELVAAISSGGSTYYADSVKGRFTISRDNAKNTDYLQMNSLKPEDTAVYYCASEQPIEFDHWGQGTQVTVSS” here?
A: Its value is “low polyreactivity”.
